Assay results published in publication PMC7135997, “Cardiac myosin regulatory light chain kinase modulates cardiac contractility by phosphorylating both myosin regulatory light chain and troponin I” (The Journal of Biological Chemistry, 2020).

Legend:
[1] = target: T1, rat cardiac troponin I (rat, UniProt P23693 1-211); assay: SEC-MALS; complex reconstituted from the three separately purified subunits mixed 1:1:1 in 6 mol/liter urea, dialysed, purified on Resource-Q; Superdex 200 5/150 GL in 50 mmol/liter Tris-HCl (pH 7.4), 5 mM MgCl2, 1 mmol/liter CaCl2, 100 mM NaCl, 100 mmol/liter tris(2-carboxyethyl)phosphine; also characterized by HPLC and ESI-MS; settings: both partners purified
T1 construct: cardiac troponin I, rat, cloned from a rat heart cDNA library into pET3a, codon-optimized; No tag is named; unphosphorylated recombinant protein; also called rcTnI; rat cTnI; source: E. coli BL21(DE3)-RIPL, inclusion bodies, purified (CM Sepharose in 6 mol/liter urea)
T1 sequence (P23693 whole entry): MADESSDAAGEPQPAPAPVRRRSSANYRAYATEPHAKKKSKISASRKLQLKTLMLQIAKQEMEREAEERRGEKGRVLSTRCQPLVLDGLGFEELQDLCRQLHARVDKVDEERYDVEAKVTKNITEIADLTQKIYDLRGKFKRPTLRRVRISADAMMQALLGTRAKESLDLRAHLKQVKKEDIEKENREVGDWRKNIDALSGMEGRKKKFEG

[2] = target: rat cardiac troponin C (rat, UniProt Q4PP99 1-161); assay: as above; settings: both partners purified

stoichiometry N [1]: 1 | stoichiometry N [2]: 1
B1: rat cardiac troponin T (natural protein)
chain: not shown
notes: cardiac troponin T, rat, cloned from a rat heart cDNA library into pET3a, codon-optimized; also called rat cTnT; rcTnT; source: E. coli BL21(DE3)-RIPL, soluble fraction, purified (ion exchange, similar method to rcTnI)
